± gives the uncertainty stated by the source.

The values that follow come from the supplement of paper PMC7877785.

The data set in a line: self-splicing fitness, log relative to wild type (ln ratio); higher = more splicing; Tetrahymena group I intron in knt gene, E. coli kanamycin selection, DiMSum; sequences stand for … in CUCUCU…GGAGGGAAAAGUUAUCAGGCAUGCACCUGGUAGCUAGUCUUUAAACCAAUAGAUUGCAUCGGUUUAAAAGGCAAGACCGUCAAAUUGCGGGAAAGGGGUCAACAGCCGUUCAGUACCAAGUCUCAGGGGAAACUUUGAGAUGGCCUUGCAAAGGGUAUGGUAAUAAGCUGACGGACAUGGUCCUAACCACGCAGCCAAGUCCUAAGUCAACAGAUCUUCUGUUGAUAUGGAUGCAGUUCACAGACUAAAUGUCGGUCGGGGAAGAUGUAUUCUUCUCAUAAGAUAUAGUCGGACCUCUCCUUAAUGGGAGCUAGCGGAUGAAGUGAUGCAACACUGGAGCCGCUGGGAACUAAUUUGUAUGCGAAAGUAUAUUGAUUAGUUUUGGAGUACUCGUGGUCG
Put shortly:
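Six replicate transformations of E. coli BL21(DE3) with a pET-22b(+) library were grown overnight at 37°C or 30°C. The library randomised all eight P1ex-region intron nucleotides, the intron lying in the knt kanamycin-resistance gene, and plates were LB agar with or without 25 μg/mL kanamycin plus 100 μg/mL carbenicillin, 50 μM IPTG and 0.2% rhamnose. Pooled colonies were amplicon-sequenced on an Illumina HiSeq 2500, and fitness is the DiMSum error-weighted combination of wild-type-normalised replicate fold changes, kanamycin versus none.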

Consider AUCCAGCAAUAUUACGGUGA, for which the “self-splicing fitness (ln)” value reads like this: (30 °C) -1.55 ± 0.096; (37 °C) -1.17 ± 0.11.

For the sequence AUCGAGCAAUAUUACGCAAU, the “self-splicing fitness (ln)” value reads like this: (30 °C) -2.08 ± 0.21; (37 °C) -2.75 ± 0.4.

Turning to GAGCAGCAAUAUUACGACAA, the “self-splicing fitness (ln)” value (30 °C) was -1.41 ± 0.3 and the “self-splicing fitness (ln)” value (37 °C) is -2.31 ± 0.2.

In the case of UGCGAGCAAUAUUACGGUCA, the “self-splicing fitness (ln)” value (30 °C) is -0.764 ± 0.071 and the “self-splicing fitness (ln)” value (37 °C) was -0.397 ± 0.077.

For CAAAAGCAAUAUUACGAGCC, the “self-splicing fitness (ln)” value (30 °C) is -3.49 ± 0.3.

Take GUCGAGCAAUAUUACGAACA: the “self-splicing fitness (ln)” value is -1.67 ± 0.37 (30 °C) and -0.344 ± 0.29 (37 °C).

For UCCCAGCAAUAUUACGAGAC, the “self-splicing fitness (ln)” value runs as follows: (30 °C) -3.6 ± 0.28; (37 °C) -0.749 ± 0.16.

For the sequence CUCGAGCAAUAUUACGGCAG, the “self-splicing fitness (ln)” value runs as follows: (30 °C) -1.71 ± 0.13; (37 °C) -1.03 ± 0.15.

In the case of AAGAAGCAAUAUUACGGCCA, the “self-splicing fitness (ln)” value was -0.587 ± 0.097 (30 °C) and -0.00293 ± 0.12 (37 °C).

Take UCGGAGCAAUAUUACGACUA: the “self-splicing fitness (ln)” value was -1.22 ± 0.37 (30 °C) and -1.83 ± 0.38 (37 °C).

Regarding GUUCAGCAAUAUUACGCCUC, the “self-splicing fitness (ln)” value by setting is: (30 °C) -0.427 ± 0.14; (37 °C) 0.0352 ± 0.16.

For the sequence GGUGAGCAAUAUUACGAACA, the “self-splicing fitness (ln)” value is, setting by setting: (30 °C) -0.64 ± 0.34; (37 °C) 0.394 ± 0.47.

CAGCAGCAAUAUUACGCCCG: the “self-splicing fitness (ln)” value was determined as 0.0522 ± 0.12 (30 °C) and 0.33 ± 0.12 (37 °C).

As to ACACAGCAAUAUUACGUUGU, the “self-splicing fitness (ln)” value runs as follows: (30 °C) -2.31 ± 0.09; (37 °C) -2.6 ± 0.14.

For CCCCAGCAAUAUUACGGCUG, the “self-splicing fitness (ln)” value was -4.06 ± 0.19 (30 °C) and -1.99 ± 0.15 (37 °C).

Take CCCAAGCAAUAUUACGCACG: the “self-splicing fitness (ln)” value (30 °C) was -2.65 ± 0.17 and the “self-splicing fitness (ln)” value (37 °C) was -2.84 ± 0.43.

For UAUGAGCAAUAUUACGCGAA, the “self-splicing fitness (ln)” value by setting is: (30 °C) -1.62 ± 0.18; (37 °C) -0.947 ± 0.32.

On to UGGUAGCAAUAUUACGGUGC, for which the “self-splicing fitness (ln)” value (30 °C) was -2.31 ± 0.34.

For CGGUAGCAAUAUUACGACCU, the “self-splicing fitness (ln)” value is 0.308 ± 0.21 (30 °C) and -0.233 ± 0.19 (37 °C).

For the sequence AGUUAGCAAUAUUACGAUAG, the “self-splicing fitness (ln)” value (30 °C) is -3.19 ± 0.29 and the “self-splicing fitness (ln)” value (37 °C) is -1.77 ± 0.29.

Consider GGCGAGCAAUAUUACGACCG, for which the “self-splicing fitness (ln)” value (30 °C) is -0.74 ± 0.28 and the “self-splicing fitness (ln)” value (37 °C) was -0.371 ± 0.26.

As to GAGGAGCAAUAUUACGAUCC, the “self-splicing fitness (ln)” value is -1.49 ± 0.31 (30 °C) and -1.12 ± 0.27 (37 °C).

For the sequence CGUAAGCAAUAUUACGCUGU, the “self-splicing fitness (ln)” value was -2.93 ± 0.16 (30 °C) and -2.17 ± 0.21 (37 °C).

Consider CGAUAGCAAUAUUACGACCU, for which the “self-splicing fitness (ln)” value by setting is: (30 °C) -1.35 ± 0.12; (37 °C) 0.288 ± 0.14.

As to CCCAAGCAAUAUUACGGCGG, the “self-splicing fitness (ln)” value was -3.72 ± 0.23 (30 °C) and -2.08 ± 0.21 (37 °C).

GUUAAGCAAUAUUACGUCUC: the “self-splicing fitness (ln)” value was -0.932 ± 0.1 (30 °C) and -0.514 ± 0.12 (37 °C).

For the sequence AUACAGCAAUAUUACGCCCG, the “self-splicing fitness (ln)” value (30 °C) was -0.847 ± 0.17 and the “self-splicing fitness (ln)” value (37 °C) was -0.634 ± 0.25.

For UGCAAGCAAUAUUACGCUGG, the “self-splicing fitness (ln)” value was -4 ± 0.35 (30 °C) and -3.17 ± 0.24 (37 °C).

In the case of GCGGAGCAAUAUUACGAGUA, the “self-splicing fitness (ln)” value runs as follows: (30 °C) -3.21 ± 0.21; (37 °C) -1.82 ± 0.15.

On to GGCAAGCAAUAUUACGUGAA, for which the “self-splicing fitness (ln)” value is, setting by setting: (30 °C) -0.509 ± 0.091; (37 °C) 0.184 ± 0.11.

For the sequence CCAAAGCAAUAUUACGGCGC, the “self-splicing fitness (ln)” value (30 °C) is -3.65 ± 0.34 and the “self-splicing fitness (ln)” value (37 °C) was -2.49 ± 0.29.

Consider UGCAAGCAAUAUUACGCAGU, for which the “self-splicing fitness (ln)” value by setting is: (30 °C) -3.63 ± 0.3; (37 °C) -3.35 ± 0.39.

As for AUUUAGCAAUAUUACGAUGG, the “self-splicing fitness (ln)” value (30 °C) is -2.89 ± 0.34.

As to ACGUAGCAAUAUUACGGGUA, the “self-splicing fitness (ln)” value runs as follows: (30 °C) -1.29 ± 0.13; (37 °C) -0.928 ± 0.12.
